This is an account of results in PMC5655542 (2017).

This assay has as its target T1, H. polygyrus Alarmin Release Inhibitor (HpARI), recombinant mature 6-His and Myc-tagged protein (Heligmosomoides polygyrus).
T1 chain: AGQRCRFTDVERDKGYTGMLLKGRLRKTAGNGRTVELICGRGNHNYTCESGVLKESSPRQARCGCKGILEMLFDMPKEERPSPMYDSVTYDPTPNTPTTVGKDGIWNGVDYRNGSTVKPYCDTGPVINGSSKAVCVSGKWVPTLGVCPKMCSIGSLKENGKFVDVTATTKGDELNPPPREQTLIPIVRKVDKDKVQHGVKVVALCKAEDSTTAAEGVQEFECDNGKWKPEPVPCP
Put plainly: SPR; 25°C.

As a reminder, the koff is the first-order rate constant of dissociation.

B1: recombinant murine IL-33, untreated (reduced, active form) (ligand)
chain: SIQGTSLLTQSPASLSTYNDQSVSFVLENGCYVINVDDSGKDQEQDQVLLRYYESPCPASQSGDGVDGKKLMVNMSPIKDTDIWLHANDKDYSVELQRGDVSPPEQAFFVLHKKSSDFVSFECKNLPGTYIGVKDNQLALVEEKDESCNNIMFKLSKI
modifications: reduced (free cysteines, no disulfides), active form; limits not given, taken as the usual commercial mature mouse IL-33 (Ser109-Ile266, UniProt chain 109-266)
Consider B1, for which the off-rate constant (koff) stood at 0.00014 s⁻¹.

B2: recombinant human IL-33, untreated (reduced, active form) (ligand)
chain: MKPKMKYSTNKISTAKWKNTASKALCFKLGKSQQKAKEVCPMYFMKLRSGLMIKKEACYFRRETTKRPSLKTGRKHKRHLVLAACQQQSTVECFAFGISGVQKYTRALHDSSITGISPITEYLASLSTYNDQSITFALEDESYEIYVEDLKKDEKKDKVLLSYYESQHPSNESGDGVDGKMLMVTLSPTKDFWLHANNKEHSVELHKCEKPLPDQAFFVLHNMHSNCVSFECKTDPGVFIGVKDNHLALIKVDSSENLCTENILFKLSET
As for B2, the koff amounted to 0.004 s⁻¹.
